Data from patent publication US20240336686A1 (ELPISCIENCE SUZHOU BIOPHARMA, published 2024).
Numbering of substitutions follows the chain as printed. Where two headings read alike, the source gives them in different places. Blank lines part the entries; values can stand above or below the binder they belong to.

Tests used:
[1] = molecular target: T1, Full length human SIRPα v1 with beta-gal fragment (ED) at its C-terminal, in K562 cells (human, UniProt P78324 31-504); test: cell-based or functional assay
[2] = molecular target: T2, human SIRPα v1 ECD recombinant protein (human, UniProt P78324 31-373); test: competitive ELISA, plate-coated human SIRPα v1 ECD; blocked ligand: mFc tagged human CD47 ECD
T2 construct: extracellular domain; Coated on the ELISA plate
Description: (§1) Competitive ELISA assay was used to determine whether the purified chimeric antibodies can block CD47 and SIRPα interaction. Briefly, antibody and mFc tagged human CD47 ECD recombinant protein were co-incubated with ELISA microplate coated human SIRPα v1 ECD or human SIRPα v2 ECD recombinant protein. The concentration of soluble ECD of CD47 is 25 nM, and the concentration of soluble ECD of SIRPα is 20 nM. After washing, HRP labeled anti-mouse Fc 2nd antibody (Sigma) was added and incubated at 37° C. for 1 hour. Then, 100 μl/well of TMB solution (Biotechnology) was added. After incubation for 15 minutes at room temperature, the reaction was stopped by the addition of 50 μl of 1N HCl. OD 450 nm was read. Blocking ratio was determined by blockade of human SIRPα ECD recombinant protein binding to ELISA microplate coated human CD47 ECD recombinant protein. All antibodies as tested can block interaction between human CD47 and different human SIRPα variants.

[3] = molecular target: T3, human SIRPα v2 on CHOK1 cells (human, UniProt P78324 31-504); test: FACS, CHOK1 cells stably expressing human SIRPα v2
T3 construct: whole, on cells; also called CHOK1-hSIRPα v2; cell surface human SIRPα v2
Source text: (§2) Binding activity of the purified chimeric antibodies against human SIRPα variants was detected by FACS assay using CHOK1 cells or 293F cells stably expressing human SIRPα v1 and CHOK1 cells stably expressing human SIRPα v2. […] EC₅₀ and top signal calculated using GraphPad Prism9.0.

[4] = molecular target: T4, human SIRPα v2 ECD recombinant protein (human); test: competitive ELISA, plate-coated human SIRPα v2 ECD; blocked ligand: mFc tagged human CD47 ECD
T4 construct: extracellular domain; Coated on the ELISA plate
Description: as §1

[5] = molecular target: T5, human SIRPα v1 on CHOK1 cells (human, UniProt P78324 31-504); test: FACS, CHOK1 cells stably expressing human SIRPα v1
T5 construct: whole, on cells; also called CHOK1-hSIRPα v1; cell surface human SIRPα v1
Source text: as §2

[6] = molecular target: T6, mFc tagged human SIRPα v1 ECD recombinant protein (human, UniProt P78324 31-373); test: competitive ELISA; row antibody in excess in solution, coated mAb hu1H9G4
T6 construct: extracellular domain; not shown: mouse Fc tag
Description: (§3) Competitive ELISA assay was used for epitope binning of purified chimeric antibodies. Briefly excessive competitor antibody and mFc tagged human SIRPα v1 ECD recombinant protein were co-incubated with ELISA microplate coated antibody. After washing, HRP labeled anti-mouse Fc 2nd antibody (Sigma) was added and incubated at 37° C. for 1 hour. Then, 100 μl/well of TMB solution (Biotechnology) was added. After incubation for 15 minutes at room temperature, the reaction was stopped by the addition of 50 μl of 1N HCl. OD 450 nm was read. Competition ratio was calculated. The antibodies that can compete each other for binding to SIRPα may have related binding epitopes.

[7] = molecular target: T6, mFc tagged human SIRPα v1 ECD …; test: competitive ELISA; row antibody in excess in solution, coated mAb 042c
Description: as §3

[8] = molecular target: T6, mFc tagged human SIRPα v1 ECD …; test: competitive ELISA; row antibody in excess in solution, coated mAb 025c
Description: as §3

[9] = molecular target: human PDL1 protein (Octet assay) (human, UniProt Q9NZQ7 19-238); test: Octet; antibody on sensor, PDL1 protein in solution
Description: The Anti-PDL1/SIRPα bispecific protein were characterized for binding affinity against human PDL1 using Octet assay (ForeBio) according to manufacturer's manual, separately. Briefly, the antibodies were coupled on sensors and then the sensors were dipped into PDL1 protein gradients (start at 200 nM, with 2-fold dilution and totally 8 doses). Their binding responses were measured in real-time and results were fit globally.

human PDL1 on cells = human PDL1 on cells (human, UniProt Q9NZQ7 19-290); test: cell-based or functional assay
[10] = molecular target: T2, human SIRPα v1 ECD recombinant protein; test: competitive ELISA, plate-coated human SIRPα v1 ECD; blocked ligand: mFc tagged human CD47 ECD; remark: listed apart in the source
Description: as §1
(§4) The humanized antibodies were tested for the ability to block CD47 and SIRPα interaction with competitive ELISA assay (refer to methods described above).

[11] = molecular target: T5, human SIRPα v1 on CHOK1 cells; test: FACS, CHOK1 cells stably expressing human SIRPα v1; remark: listed apart in the source
[12] = molecular target: T3, human SIRPα v2 on CHOK1 cells; test: competitive FACS, CHOK1 cells stably expressing human SIRPα v2; blocked ligand: mFc tagged human CD47 ECD
Description: (§5) Competitive FACS assay was also set up to further compare the blocking activity of the humanized antibodies and some known anti-SIRPα antibodies. Briefly antibody and mFc tagged human CD47 ECD recombinant protein were co-incubated with CHOK1 cells stably expressing human SIRPα v1 or human SIRPα v2. After washing, dye labeled anti-mouse Fc 2nd antibody (Sigma) was added and incubated at 37° C. for 1 hour. Fluorescence intensity was detected. Blocking ratio was determined by blockade of human CD47 ECD recombinant protein binding to SIRPα expressed CHOK1 cells.

[13] = molecular target: T5, human SIRPα v1 on CHOK1 cells; test: competitive FACS, CHOK1 cells stably expressing human SIRPα v1; blocked ligand: mFc tagged human CD47 ECD
Description: as §5

Human SIRPα v2 = molecular target: T7, Human SIRPα v2 (human); test: SPR (Biacore), 1:1 binding model
T7 construct: also called human SIRPα v2 (antigen of the Biacore assay)
Description: The humanized antibodies were characterized for binding affinity against human SIRPα v1, human SIRPα v2 using Surface Plasmon Resonance technology (Biacore system). The association and dissociation curves were fit with 1:1 binding model, and the Ka/Kd/KD values for each antibody were calculated.

[14] = molecular target: T1, Full length human SIRPα v1 with …; test: cell-based or functional assay; remark: listed apart in the source
[15] = molecular target: T3, human SIRPα v2 on CHOK1 cells; test: FACS, CHOK1 cells stably expressing human SIRPα v2; remark: listed apart in the source
[16] = molecular target: T4, human SIRPα v2 ECD recombinant protein; test: competitive ELISA, plate-coated human SIRPα v2 ECD; blocked ligand: mFc tagged human CD47 ECD; remark: listed apart in the source
Description: as §1, §4

Chain of human PDL1 protein (Octet assay) (Q9NZQ7 19-238 limits assumed): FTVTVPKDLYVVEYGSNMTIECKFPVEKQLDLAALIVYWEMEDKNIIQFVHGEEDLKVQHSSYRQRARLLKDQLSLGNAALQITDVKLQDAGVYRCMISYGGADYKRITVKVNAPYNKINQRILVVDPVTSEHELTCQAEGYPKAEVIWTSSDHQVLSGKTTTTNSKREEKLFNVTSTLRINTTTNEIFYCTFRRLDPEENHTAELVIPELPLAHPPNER
T3 sequence (P78324 other isoform, or with tags, fused parts or gaps limits assumed): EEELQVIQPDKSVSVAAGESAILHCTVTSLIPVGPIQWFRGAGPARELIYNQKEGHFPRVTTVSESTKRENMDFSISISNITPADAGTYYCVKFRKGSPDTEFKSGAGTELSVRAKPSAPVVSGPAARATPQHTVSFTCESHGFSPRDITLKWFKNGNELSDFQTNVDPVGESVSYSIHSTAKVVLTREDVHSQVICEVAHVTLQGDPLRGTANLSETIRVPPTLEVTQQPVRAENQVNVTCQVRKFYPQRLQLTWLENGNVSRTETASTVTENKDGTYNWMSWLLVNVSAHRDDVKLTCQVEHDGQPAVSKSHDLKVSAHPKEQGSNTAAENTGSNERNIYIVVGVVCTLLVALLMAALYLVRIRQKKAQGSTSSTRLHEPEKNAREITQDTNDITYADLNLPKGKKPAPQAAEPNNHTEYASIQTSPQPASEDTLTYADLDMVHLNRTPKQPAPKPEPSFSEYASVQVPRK
T5 sequence (P78324 31-504): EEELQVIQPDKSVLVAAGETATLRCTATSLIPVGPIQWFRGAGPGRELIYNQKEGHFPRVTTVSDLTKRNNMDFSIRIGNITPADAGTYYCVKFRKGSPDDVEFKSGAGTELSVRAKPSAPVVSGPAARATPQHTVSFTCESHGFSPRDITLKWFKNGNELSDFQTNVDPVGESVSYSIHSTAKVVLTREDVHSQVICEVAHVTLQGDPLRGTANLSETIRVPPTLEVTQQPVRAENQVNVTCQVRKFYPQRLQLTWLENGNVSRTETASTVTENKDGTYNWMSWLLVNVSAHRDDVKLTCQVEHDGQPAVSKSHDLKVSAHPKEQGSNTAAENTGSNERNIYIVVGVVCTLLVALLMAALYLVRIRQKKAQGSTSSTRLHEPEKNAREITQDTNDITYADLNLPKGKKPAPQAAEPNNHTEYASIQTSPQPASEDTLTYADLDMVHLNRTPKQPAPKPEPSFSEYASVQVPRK
T1 sequence (P78324 31-504): as above
T6 sequence (P78324 31-373): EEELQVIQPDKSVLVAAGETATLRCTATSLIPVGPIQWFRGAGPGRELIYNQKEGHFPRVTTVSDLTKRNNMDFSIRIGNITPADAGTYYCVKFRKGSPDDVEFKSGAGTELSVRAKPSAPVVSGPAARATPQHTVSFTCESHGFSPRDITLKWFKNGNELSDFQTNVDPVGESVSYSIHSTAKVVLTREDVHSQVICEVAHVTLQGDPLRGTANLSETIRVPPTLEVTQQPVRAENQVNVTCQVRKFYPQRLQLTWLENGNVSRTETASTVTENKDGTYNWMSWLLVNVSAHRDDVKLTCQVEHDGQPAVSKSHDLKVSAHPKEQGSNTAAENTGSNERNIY
T2 sequence (P78324 31-373): as above
Chain of human PDL1 on cells (Q9NZQ7 19-290): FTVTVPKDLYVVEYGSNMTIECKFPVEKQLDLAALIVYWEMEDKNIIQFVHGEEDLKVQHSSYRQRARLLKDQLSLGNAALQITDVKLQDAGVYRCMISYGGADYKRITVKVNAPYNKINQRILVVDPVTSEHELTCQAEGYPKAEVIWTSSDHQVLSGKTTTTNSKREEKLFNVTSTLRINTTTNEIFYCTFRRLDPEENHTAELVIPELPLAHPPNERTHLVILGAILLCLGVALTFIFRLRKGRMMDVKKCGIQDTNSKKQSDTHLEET

B2: Anti-SIRPα antibody C42 (antibody, human IgG4, V domains shown)
VH: QIQLVQSGPELKKPGETVKISCRASGYTFTTYGMSWVKQAPGKGLRWMGWINTYSGVSTCADDFKGRFAFSLETSATTAYLQIHNLTNEDTATYFCARDPHSYGNSPAWFPYWGQGTLVTVSA
VL: DIVMTQSQKFMSTTIRDRVSITCKASQNVGISVAWYQQKSGQSPKLLIYSASNRYTGVPDRFTGSGSGTDFTLTISNMQSEDLADYFCQQYSSYPLTFGSGTKLAIK
notes: Mouse variable regions; also called 042c
IC50 (SHP-1 recruitment blocking) [1]: 0.99 nM
TOP blocking (SHP-1 recruitment) [1]: 70%
% Competition [6]: 29.8%
% Competition [7]: 93.9%
IC50 [2]: 3.6 nM
TOP blocking [2]: 97.1%
EC50 [3]: 4.21 nM
TOP MFI [3]: 54800 MFI
IC50 [4]: 4.49 nM
TOP blocking [4]: 94.6%
EC50 [5]: 1.9 nM
TOP MFI [5]: 73200 MFI
% Competition [8]: 8.9%

B3: Reference anti-SIRPα antibody hu1H9G4 (antibody, human IgG4, V domains shown)
VH: QVQLVQSGAEVKKPGASVKVSCKASGYTFTSYWITWVKQAPGQGLEWIGDIYPGSGSTNHIEKFKSKATLTVDTSISTAYMELSRLRSDDTAVYYCATGYGSSYGYFDYWGQGTLVTVSS
VL: DIQMTQSPSSLSASVGDRVTITCRASENIYSYLAWYQQKPGKAPKLLIYTAKTLAEGVPSRFSGSGSGTDFTLTISSLQPEDFATYYCQHQYGPPFTFGQGTKLELK
% Competition [6]: 90.5%
% Competition [7]: 82.6%
% Competition [8]: 14.5%

B7: Humanized anti-SIRPα antibody hu025.060 (antibody, V domains shown)
VH: EVQLVQSGAEVKKPGATVKISCKASGFNIKDYYMHWVQQAPGKGLEWIGRIDPEDAETKYAPKFQGRVTITADTSTNTAYMELSSLRSEDTAVYYCDRGLAYWGQGTLVTVSS
VL: EIVLTQSPATLSLSPGERATLSCSASSSVSSSYLYWYQQKPGQAPKLWIYSTSNLASGIPARFSGSGSGTDFTLTISSLEPEDFAVYYCHQWSSYPYTFGQGTKLEIK
notes: Humanized from C25
IC50 [10]: 2.15 nM
TOP blocking [10]: 95.2%
EC50 [11]: 0.84 nM
TOP MFI [11]: 61500 MFI
IC50 [12]: 0.77 nM
TOP blocking [12]: 99.8%
IC50 [13]: 0.53 nM
TOP blocking [13]: 98.7%
Kd (Human SIRPα v2): 2.34 nM
koff (Human SIRPα v2): 0.00344 s⁻¹
kon (Human SIRPα v2): 1.47e+06 M⁻¹ s⁻¹
IC50 (SHP-1 recruitment blocking) [14]: 0.09 nM
TOP blocking (SHP-1 recruitment) [14]: 87.5%
EC50 [15]: 0.8 nM
TOP MFI [15]: 48800 MFI
IC50 [16]: 1.88 nM
TOP blocking [16]: 97%

Further lines, results first:

IC50 (SHP-1 recruitment blocking) [1]: 0.07 nM
TOP blocking (SHP-1 recruitment) [1]: 66.9%
IC50 [2]: 2.63 nM
TOP blocking [2]: 97%
EC50 [3]: 12 nM
TOP MFI [3]: 19600 MFI
IC50 [4]: 54.1 nM
TOP blocking [4]: 84.4%
EC50 [5]: 1.45 nM
TOP MFI [5]: 69800 MFI
B1: Anti-SIRPα antibody C59 (antibody, V domains shown)
VH: QVQLQQSGPELVKPGASVKMSCKASGYTFSEYVLSWVKQRTGQGLEWIGEIYPGTITTYYNEKFKGKATLTADKSSNTAYIQLTSLTSEDSAVYFCGRFYDYDGGWFAYWGQGTLLTVSA
VL: ENVLTQSPEKMAVSLGQKVTMTCSASSSVSSSDLHWYQQKSGASPKPLIHGTSNLASGVPARFSGSGSGTSYSLTISSVEAEDAATYYCQQWSGYPWTFGGGTNLEIK
notes: Mouse variable regions; tested as purified chimeric antibody; also called 059c

IC50 (SHP-1 recruitment blocking) [1]: 0.09 nM
TOP blocking (SHP-1 recruitment) [1]: 73.5%
IC50 [2]: 2.32 nM
TOP blocking [2]: 96.4%
EC50 [3]: 1.58 nM
TOP MFI [3]: 50100 MFI
IC50 [4]: 2.45 nM
TOP blocking [4]: 96.7%
EC50 [5]: 1.49 nM
TOP MFI [5]: 80000 MFI
B4: Anti-SIRPα antibody C15 (antibody, V domains shown)
VH: EVQLQQSGVEVVQPGASVKLSCTASGFNIEAYYMHWVKQRTEQGLEWIGRIDPEDGESKYAPKFQGKATMTADTSSSTAYLQLSSLTSDDTAVYYCVRGSYEYWGQGTTLTVSS
VL: QIVLTQSPAIMSASPGEKVTLTCSASSSVSSSYLYWYQQKPGSSPKLWIYSTSNLASGVPPRFSGSGSGTSYSLTISSMQAEDAASYFCYQWSSYPYTFGGGTKLEIK
notes: Mouse variable regions; tested as purified chimeric antibody; also called 015c

Kd [9]: 4.1 nM
koff [9]: 0.00639 s⁻¹
kon [9]: 1.56e+06 M⁻¹ s⁻¹
EC50 (read off the curve) (human PDL1 on cells): ~1 nM
B5: Anti-PDL1/SIRPα bispecific antibody ES019-026 (bispecific antibody, not shown: small tags and cut ends; a dimerising Fc or GST)
light (part 1 of 2): EVQVVESGGGLVQSGGSLKLSCAGSGFTESAGFMVWHRQVPGKERELVALIATPSGSTNYADSVKGRFTISRDNGKNTVYLQMNSLKPEDTAVYYCNIRGYWGQGTLVTVSS
light (part 2 of 2): B4 VL with P61A, Q80E, Y90H
heavy: EVQLQQSGAELVKPGASVKLSCTASGFNIKDYYMHWVKQRTEQGLEWIGRIDPEDGETKYAPKFQGKATITADTSSNTAYLQLSSLTSEDTAVYYCDRGLAYWGQGTLVTVSA

IC50 [10]: 2.6 nM
TOP blocking [10]: 97.2%
EC50 [11]: 1.13 nM
TOP MFI [11]: 57800 MFI
IC50 [12]: 0.75 nM
TOP blocking [12]: 100%
IC50 [13]: 0.57 nM
TOP blocking [13]: 97.7%
Kd (Human SIRPα v2): 2.78 nM
koff (Human SIRPα v2): 0.00492 s⁻¹
kon (Human SIRPα v2): 1.77e+06 M⁻¹ s⁻¹
IC50 (SHP-1 recruitment blocking) [14]: 0.1 nM
TOP blocking (SHP-1 recruitment) [14]: 85.5%
EC50 [15]: 0.81 nM
TOP MFI [15]: 45800 MFI
IC50 [16]: 2.07 nM
TOP blocking [16]: 98%
B6: Humanized anti-SIRPα antibody hu025.023 (antibody, V domains shown)
VH: B7 VH with A24V
VL: B7 VL
notes: Humanized from C25
